This data set addresses FleQ (Pseudomonas aeruginosa PAO1) (UniProt G3XCV0). The data set is described as follows: EMSA.

Binding data for one sequence are collected here from article PMC9927353.

FleQ (Pseudomonas aeruginosa PAO1), sequence (G3XCV0 whole entry): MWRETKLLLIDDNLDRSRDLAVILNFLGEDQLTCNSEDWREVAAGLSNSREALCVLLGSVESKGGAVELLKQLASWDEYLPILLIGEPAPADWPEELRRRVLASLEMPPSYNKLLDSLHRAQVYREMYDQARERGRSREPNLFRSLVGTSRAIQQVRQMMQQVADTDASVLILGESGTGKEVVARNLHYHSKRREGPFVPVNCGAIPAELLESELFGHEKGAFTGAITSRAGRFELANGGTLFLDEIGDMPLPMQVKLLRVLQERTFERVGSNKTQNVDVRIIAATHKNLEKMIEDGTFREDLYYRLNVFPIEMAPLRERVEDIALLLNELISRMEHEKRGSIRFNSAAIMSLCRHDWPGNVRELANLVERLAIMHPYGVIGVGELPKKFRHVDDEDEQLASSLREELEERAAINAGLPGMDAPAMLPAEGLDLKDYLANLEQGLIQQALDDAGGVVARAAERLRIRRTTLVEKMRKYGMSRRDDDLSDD

With “GAGTTGCAGCCTTTCCTTGCCGTCAGCCATGGCGCACCTCCGGACGAGGGTACGCGCAGGGGTCTTCGAGATGGCTCATTATTCTTGTCTCCACTCTGTCAGAGGCCGTGTCTTGCGCACGGATGAGCGGATTATTGGCGGCGGATGTAAGACGCCGTTGAACGCGCGGATCGAAGATGTAAAAAGCTGTAAGGAAGTTGTTCGCCGCG (double strand) [lysP promoter (4981)]”, the binding result was “binds”.
